Data from article PMC5259998.

B1: Soluble sdAb produced from PhC11 (VHH)
VHH: QVEVVASGGGLVQAGESLRLSCTASGFTFDNVAAGWFRQAPGKEREGVACISKNGRTTDSADSVKGRFTISRDTAKNTVYLQMDKLKVEDTAEYYCAATYLNTCVLSSPPENIHYWGKGTQVTVS
B2: Soluble sdAb produced from PhC12 (VHH)
VHH: RREVVESGGGLVQPGESLRVACAASGFTVSSYIMHWVRQAPGKGLEWVSYIDHGGNTVYGDSVKGRFTISRDNAKNTLALQMNSLKPEDTALYYCVRDGDNTHFVAYDYWGQGTLVTVS

Target: H-OspA, freshly biotinylated (Borrelia bavariensis strain SKT-7.1)
Assay: BLI; BLItz; biotinylated H-OspA on streptavidin biosensors (250 μg/mL, 150 s); soluble sdAb at 7.25, 14.5 and 29 μM; 120 s association, 120 s dissociation; PBS-T, 0.02% Tween-20; global fitting (1:1)

Row | Binder | koff [s⁻¹] | kon [M⁻¹ s⁻¹]
1 | B1 | 0.0586 | 13700
2 | B2 | 0.146 | 185
